In series [1] the target is TV0924 (TREVI0001_0924), acetate kinase from Treponema vincentii (Treponema vincentii). As to the kind of experiment: AUC; sedimentation velocity, 20°C, Buffer A (20 mM HEPES, 0.1 M NaCl, pH 7.5, 2 mM n-octyl-β-D-glucopyranoside), 50,000 rpm, absorbance at 280 nm, c(s) analysis in SEDFIT; self-association.
For series [2] the target is unchanged. As to the kind of experiment: mass photometry; TwoMP (Refeyn), sample diluted in PBS, ca. 10 nM in the droplet, 60-s movie; self-association.
Series [3] addresses T1, TV0924 (TREVI0001_0924; rTV0924; TvAckA) (Treponema vincentii, UniProt C8PR54).
T1 construct: gene ackA; homodimer, calculated dimer mass 104,820 g/mol
T1 sequence (C8PR54 1-449): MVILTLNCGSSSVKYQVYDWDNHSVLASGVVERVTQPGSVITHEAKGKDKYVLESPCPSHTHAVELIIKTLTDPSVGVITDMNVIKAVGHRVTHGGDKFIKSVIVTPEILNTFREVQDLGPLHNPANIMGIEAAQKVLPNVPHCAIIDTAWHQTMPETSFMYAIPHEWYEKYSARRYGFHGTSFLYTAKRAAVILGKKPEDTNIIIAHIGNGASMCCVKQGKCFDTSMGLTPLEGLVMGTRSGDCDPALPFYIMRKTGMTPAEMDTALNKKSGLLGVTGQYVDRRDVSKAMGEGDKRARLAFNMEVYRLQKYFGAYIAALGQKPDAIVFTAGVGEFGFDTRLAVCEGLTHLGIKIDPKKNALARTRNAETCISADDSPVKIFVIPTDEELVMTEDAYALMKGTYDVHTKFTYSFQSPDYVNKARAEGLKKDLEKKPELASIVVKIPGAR
As to the kind of experiment: X-ray crystal structure, […] Å. It counts as binding. Conditions: active site; co-crystallised with 5 mM ADP and 5 mM MgCl2, pH 5.5; modelled as AMP, may be hydrolysed ADP or ADP with disordered beta-phosphate.

Series [4] deals with the molecule itself. As to the kind of experiment: mass photometry; TwoMP (Refeyn), sample diluted in PBS, ca. 10 nM in the droplet, 60-s movie; self-association.
Substrate in series [5]: CC(=O)OP(=O)(O)O
As to the kind of experiment: purified protein. Particulars: ATP-forming direction, ADP up to 5 mM, 20 mM MgCl2, 100 mM HEPES pH 7.5, 100 mM NaCl, 37 °C. It is filed as biochemical, Treponema pallidum.

Substrate in series [6]: Nc1ncnc2c1ncn2[C@@H]1O[C@H](COP(=O)(O)OP(=O)(O)O)[C@@H](O)[C@H]1O
As to the kind of experiment: purified protein. It is filed as biochemical, Treponema pallidum. Conditions: ATP-forming direction, acetyl phosphate up to 10 mM, 20 mM MgCl2, 100 mM HEPES pH 7.5, 100 mM NaCl, 37 °C.

Series [7] deals with the molecule itself. As to the kind of experiment: AUC; sedimentation velocity, 20°C, Buffer A (20 mM HEPES, 0.1 M NaCl, pH 7.5, 2 mM n-octyl-β-D-glucopyranoside), 50,000 rpm, absorbance at 280 nm, c(s) analysis in SEDFIT; self-association.
Substrate in series [8]: CC(=O)OP(=O)(O)O
As to the kind of experiment: purified protein. It is filed as biochemical, Treponema vincentii. Conditions: ATP-forming direction, ADP up to 5 mM, 20 mM MgCl2, 100 mM HEPES pH 7.5, 100 mM NaCl, 37 °C.

Substrate in series [9]: Nc1ncnc2c1ncn2[C@@H]1O[C@H](COP(=O)(O)OP(=O)(O)O)[C@@H](O)[C@H]1O
As to the kind of experiment: purified protein. It counts as biochemical, Treponema vincentii. Particulars: ATP-forming direction, acetyl phosphate up to 10 mM, 20 mM MgCl2, 100 mM HEPES pH 7.5, 100 mM NaCl, 37 °C.

The source of these data is paper PMC11717252, “Biophysical and biochemical evidence for the role of acetate kinases (AckAs) in an acetogenic pathway in pathogenic spirochetes” (PLOS ONE, 2025).

Values joined by “and” are separate entries in the source; they are usually repeats but may differ in a detail not shown here. Identical values can stand only once.

Take “TV0924 (TREVI0001_0924), acetate kinase from Treponema vincentii (enzyme)”: the stoichiometry N in series [1] and in [2] was 2 in each case.
For the molecule `Nc1ncnc2c1ncn2[C@@H]1O[C@H](COP(=O)(O)O)[C@@H](O)[C@H]1O` [AMP], in [3], the “X-ray crystal structure, 1.30 Å” value was “The nucleotide was modeled as AMP, and we refer to this structure below as TV0924‧AMP”.

B1: TP0476, acetate kinase from Treponema pallidum (enzyme, UniProt O83489 1-448, looked up)
chain: MIILTLNCGSSSVKYQVYNWTERAVIAVGVVERVTQAGSVITHEVHGRENHVRESPCPTHTEAVQLIISTLTDAHVGVISDMSLIKAVGHRVLHAADRFVKSVVVTPDVLETFRSVQDLGPLHNPANIRGIEAAQAVIPSVPHCAIMDTAWHQTMPEASFMYAVPRQWYEEYAVRRYGFHGTSFLYTAKRASVILKKRAEDTNIIIAHIGNGASMCCVKNGVSFDTSMGITPLEGLIMGTRCGDCDPALAFYIMRKTGMSVSDIDTTLNKQSGLLGITGKYVDRRDVCAAMKNGDALARLAFDMEVHRIRKYFGAYVAALGKQPDALVFTAGVGEMCCDVRAAACAGLEHLGIRLDARKNELARTRNAETEISTDDSPVRILVIPTDEELVMTEDTYALMQGTYDVHTRFTYSFQDPTYVNKARAAGLKRDLEKNPALATIVVPRLDT
notes: Acetate kinase TP0476 of Treponema pallidum, amino acid residues 1-448; The dominant species is a dimer; monomer, trimer, tetramer and aggregates were also seen; also called rTP0476; TpAckA
On to B1, for which, in series [4], the “stoichiometry N” value was 3 and 4. Besides, in the series “purified protein [5]”, the Michaelis constant (Km) was 380 ± 19 µM, the turnover number (kcat) turned out to be 51.5 ± 0.8 s⁻¹ and the catalytic efficiency (kcat/Km) was 137000 ± 11000 M⁻¹ s⁻¹. Further, in “purified protein [6]”, the Michaelis-Menten constant (Km) was 650 ± 70 µM, the kcat stood at 63.3 ± 1.5 s⁻¹ and the kcat/Km turned out to be 90000 ± 10000 M⁻¹ s⁻¹. In [7], the “stoichiometry N” value turned out to be 2.

B2: TV0924 (TREVI0001_0924; rTV0924; TvAckA) (Treponema vincentii ATCC 35580) (protein)
chain: MVILTLNCGSSSVKYQVYDWDNHSVLASGVVERVTQPGSVITHEAKGKDKYVLESPCPSHTHAVELIIKTLTDPSVGVITDMNVIKAVGHRVTHGGDKFIKSVIVTPEILNTFREVQDLGPLHNPANIMGIEAAQKVLPNVPHCAIIDTAWHQTMPETSFMYAIPHEWYEKYSARRYGFHGTSFLYTAKRAAVILGKKPEDTNIIIAHIGNGASMCCVKQGKCFDTSMGLTPLEGLVMGTRSGDCDPALPFYIMRKTGMTPAEMDTALNKKSGLLGVTGQYVDRRDVSKAMGEGDKRARLAFNMEVYRLQKYFGAYIAALGQKPDAIVFTAGVGEFGFDTRLAVCEGLTHLGIKIDPKKNALARTRNAETCISADDSPVKIFVIPTDEELVMTEDAYALMKGTYDVHTKFTYSFQSPDYVNKARAEGLKKDLEKKPELASIVVKIPGAR
notes: homodimer, calculated dimer mass 104,820 g/mol
For B2, in the series “purified protein [8]”, the Km worked out at 320 ± 30 µM, the kcat turned out to be 3900 ± 300 s⁻¹ and the kcat/Km stood at 1.19e+07 ± 400000 M⁻¹ s⁻¹. Further, in “purified protein [9]”, the Km came to 650 ± 30 µM, the kcat was found to be 4800 ± 400 s⁻¹ and the kcat/Km came to 7.5e+06 ± 400000 M⁻¹ s⁻¹.

What is called stoichiometry N is the number of molecules, sites or subunits per partner or assembly. By Km is commonly meant the concentration of substrate that gives half-maximal velocity. Usually kcat stands for the maximal rate divided by the concentration of active sites. By kcat/Km is commonly meant the turnover number divided by the Michaelis constant.
